Reference: patent US20060270591A1 (published 2006)

T1: VP16 fused near full-length AR (nAR, aa 36-918) (human, UniProt P10275 36-919)
T1 sequence: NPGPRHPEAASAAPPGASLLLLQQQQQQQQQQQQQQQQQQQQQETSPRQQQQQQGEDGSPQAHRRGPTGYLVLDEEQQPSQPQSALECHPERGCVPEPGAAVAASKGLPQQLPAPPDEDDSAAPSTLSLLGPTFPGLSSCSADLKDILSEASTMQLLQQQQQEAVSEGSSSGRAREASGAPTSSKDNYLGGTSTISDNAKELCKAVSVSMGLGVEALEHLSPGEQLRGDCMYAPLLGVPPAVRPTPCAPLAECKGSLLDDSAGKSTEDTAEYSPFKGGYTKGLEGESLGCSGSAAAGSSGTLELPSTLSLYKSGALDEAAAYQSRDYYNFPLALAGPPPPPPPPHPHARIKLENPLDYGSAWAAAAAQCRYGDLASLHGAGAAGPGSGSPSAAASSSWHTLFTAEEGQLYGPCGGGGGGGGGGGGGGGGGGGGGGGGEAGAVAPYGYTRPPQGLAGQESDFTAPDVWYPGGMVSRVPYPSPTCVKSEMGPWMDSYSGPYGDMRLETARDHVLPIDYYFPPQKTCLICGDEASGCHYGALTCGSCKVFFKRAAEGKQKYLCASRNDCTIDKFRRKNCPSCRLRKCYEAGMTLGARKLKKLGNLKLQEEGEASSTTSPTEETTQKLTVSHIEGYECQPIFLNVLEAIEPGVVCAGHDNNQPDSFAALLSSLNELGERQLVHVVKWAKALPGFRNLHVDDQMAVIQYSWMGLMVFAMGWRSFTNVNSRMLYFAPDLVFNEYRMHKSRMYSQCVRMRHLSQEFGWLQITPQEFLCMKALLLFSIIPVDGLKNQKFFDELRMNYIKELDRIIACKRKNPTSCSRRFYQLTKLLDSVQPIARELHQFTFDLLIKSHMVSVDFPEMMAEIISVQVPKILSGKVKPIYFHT

T2: VP16 fused AR (Example 3) (human, UniProt P10275 36-920)
T2 construct: also called VP16-AR
T2 sequence: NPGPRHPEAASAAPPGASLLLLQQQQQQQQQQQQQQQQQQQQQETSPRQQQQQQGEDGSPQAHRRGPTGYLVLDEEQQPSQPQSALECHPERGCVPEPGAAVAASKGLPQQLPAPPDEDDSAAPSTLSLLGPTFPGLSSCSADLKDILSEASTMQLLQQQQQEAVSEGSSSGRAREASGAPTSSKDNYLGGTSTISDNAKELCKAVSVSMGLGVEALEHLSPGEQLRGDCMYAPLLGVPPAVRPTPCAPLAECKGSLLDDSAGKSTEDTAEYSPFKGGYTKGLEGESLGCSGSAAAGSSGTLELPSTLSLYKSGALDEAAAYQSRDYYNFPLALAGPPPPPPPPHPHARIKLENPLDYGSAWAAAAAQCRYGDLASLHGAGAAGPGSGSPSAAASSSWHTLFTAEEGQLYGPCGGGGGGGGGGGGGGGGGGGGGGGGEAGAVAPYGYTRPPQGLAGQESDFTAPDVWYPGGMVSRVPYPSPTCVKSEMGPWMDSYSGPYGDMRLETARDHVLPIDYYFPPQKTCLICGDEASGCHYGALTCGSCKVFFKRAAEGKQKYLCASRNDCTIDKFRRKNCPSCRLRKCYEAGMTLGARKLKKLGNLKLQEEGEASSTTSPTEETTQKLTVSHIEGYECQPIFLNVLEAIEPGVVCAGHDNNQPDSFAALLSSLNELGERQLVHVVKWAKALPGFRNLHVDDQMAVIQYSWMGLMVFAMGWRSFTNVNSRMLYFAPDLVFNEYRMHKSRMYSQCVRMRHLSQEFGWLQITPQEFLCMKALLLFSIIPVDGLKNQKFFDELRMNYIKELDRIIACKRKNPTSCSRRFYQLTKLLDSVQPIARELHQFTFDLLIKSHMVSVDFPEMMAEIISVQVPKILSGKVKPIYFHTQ

B1: GAL4 DBD fused Rb fragment (aa 371-928) (other)
chain: MKLLSSIEQACDICRLKKLKCSKEKPKCAKCLKNNWECRYSPKTKRSPLTRAHLTEVESRLERLEQLFLLIFPREDLDMILKMDSLQDIKALLTGLFVQDNVNKDAVTDRLASVETDMPLTLRQHRISATSSSEESSNKGQRQLTVSPHTPVRTVMNTIQQLMMILNSASDQPSENLISYFNNCTVNPKESILKRVKDIGYIFKEKFAKAVGQGCVEIGSQRYKLGVRLYYRVMESMLKSEEERLSIQNFSKLLNDNIFHMSLLACALEVVMATYSRSTSQNLDSGTDLSFPWILNVLNLKAFDFYKVIESFIKAEGNLTREMIKHLERCEHRIMESLAWLSDSPLFDLIKQSKDREGPTDHLESACPLNLPLQNNHTAADMYLSPVRSPKKKGSTTRVNSTANAETQATSAFQTQKPLKSTSLSLFYKKVYRLAYLRLNTLCERLLSEHPELEHIIWTLFQHTLQNEYELMRDRHLDQIMMCSMYGICKVKNIDLKFKIIVTAYKDLPHAVQETFKRVLIKEEEYDSIIVFYNSVFMQRLKTNILQYASTRPPTLSPIPHIPRSPYKFPSSPLRIPGGNIYISPLKSPYKISEGLPTPTKMTPRSRILVSIGESFGTSEKFQKINQMVCNSDRVLKRSAEGSNPPKPLKKLRFDIEGSDEADGSKHLPGESKFQQKLAEMTSTRTRMQKQKMNDSMDTSNKEEK
B2: ARA70 (mammalian two-hybrid construct of Example 1) (other)
chain: MNTFQDQSGSSSNREPLLRCSDARRDLELAIGGVLRAEQQIKDNLREVKAQIHSCISRHLECLRSREVWLYEQVDLIYQLKEETLQQQAQQLYSLLGQFNCLTHQLECTQNKDLANQVSVCLERLGSLTLKPEDSTVLLFEADTITLRQTITTFGSLKTIQIPEHLMAHASSANIGPFLEKRGCISMPEQKSASGIVAVPFSEWLLGSKPASGYQAPYIPSTDPQDWLTQKQTLENSQTSSRACNFFNNVGGNLKGLENWLLKSEKSSYQKCNSHSTTSSFSIEMEKVGDQELPDQDEMDLSDWLVTPQESHKLRKPENGSRETSEKFKLLFQSYNVNDWLVKTDSCTNCQGNQPKGVEIENLGNLKCLNDHLEAKKPLSTPSMVTEDWLVQNHQDPCKVEEVCRANEPCTSFAECVCDENCEKEALYKWLLKKEGKDKNGMPVEPKPEPEKHKDSLNMWLCPRKEVIEQTKAPKAMTPSRIADSFQVIKNSPLSEWLIRPPYKEGSPKEVPGTEDRAGKQKFKSPMNTSWCSFNTADWVLPGKKMGNLSQLSSGEDKWLLRKKAQEVLLNSPLQEEHNFPPDHYGLPAVCDLFACMQLKVDKEKWLYRTPLQM
notes: pGAL4-VP16 was used to construct a fusion of ARA70; limits and fusion partner not clearly stated
B3: GALAD70-N: GAL4AD fused ARA70 aa 1-401 (other, not shown: large carriers)
chain: MNTFQDQSGSSSNREPLLRCSDARRDLELAIGGVLRAEQQIKDNLREVKAQIHSCISRHLECLRSREVWLYEQVDLIYQLKEETLQQQAQQLYSLLGQFNCLTHQLECTQNKDLANQVSVCLERLGSLTLKPEDSTVLLFEADTITLRQTITTFGSLKTIQIPEHLMAHASSANIGPFLEKRGCISMPEQKSASGIVAVPFSEWLLGSKPASGYQAPYIPSTDPQDWLTQKQTLENSQTSSRACNFFNNVGGNLKGLENWLLKSEKSSYQKCNSHSTTSSFSIEMEKVGDQELPDQDEMDLSDWLVTPQESHKLRKPENGSRETSEKFKLLFQSYNVNDWLVKTDSCTNCQGNQPKGVEIENLGNLKCLNDHLEAKKPLSTPSMVTEDWLVQNHQDPCKVE
notes: the legend says GAL4AD fusions; also called ARA70N peptide (aa 1 to 401); ARA70-N
B4: GALAD70-N2: GAL4AD fused ARA70 aa 176-401 (other, not shown: large carriers)
chain: GPFLEKRGCISMPEQKSASGIVAVPFSEWLLGSKPASGYQAPYIPSTDPQDWLTQKQTLENSQTSSRACNFFNNVGGNLKGLENWLLKSEKSSYQKCNSHSTTSSFSIEMEKVGDQELPDQDEMDLSDWLVTPQESHKLRKPENGSRETSEKFKLLFQSYNVNDWLVKTDSCTNCQGNQPKGVEIENLGNLKCLNDHLEAKKPLSTPSMVTEDWLVQNHQDPCKVE
notes: also called ARA70-N2 peptide (aa 176 to 401); ARA70-N2
B5: GALAD70-LXXLL: GAL4AD fused ARA70 aa 90-99 (peptide, not shown: large carriers)
chain: QQLYSLLGQF
notes: also called ARA70 LXXLL (aa 90 to 99)
B6: GALAD70-N1: GAL4AD fused ARA70 aa 1-175 (other, not shown: large carriers)
chain: MNTFQDQSGSSSNREPLLRCSDARRDLELAIGGVLRAEQQIKDNLREVKAQIHSCISRHLECLRSREVWLYEQVDLIYQLKEETLQQQAQQLYSLLGQFNCLTHQLECTQNKDLANQVSVCLERLGSLTLKPEDSTVLLFEADTITLRQTITTFGSLKTIQIPEHLMAHASSANI
notes: also called ARA70-N1
B7: GALAD70-C: GAL4AD fused ARA70 aa 383-614 (other, not shown: large carriers)
chain: SMVTEDWLVQNHQDPCKVEEVCRANEPCTSFAECVCDENCEKEALYKWLLKKEGKDKNGMPVEPKPEPEKHKDSLNMWLCPRKEVIEQTKAPKAMTPSRIADSFQVIKNSPLSEWLIRPPYKEGSPKEVPGTEDRAGKQKFKSPMNTSWCSFNTADWVLPGKKMGNLSQLSSGEDKWLLRKKAQEVLLNSPLQEEHNFPPDHYGLPAVCDLFACMQLKVDKEKWLYRTPLQM
notes: also called ARA70-C (aa 383-614)
B8: GAL4 DBD fused ARA70-N1 (aa 1-175) (other)
chain: MKLLSSIEQACDICRLKKLKCSKEKPKCAKCLKNNWECRYSPKTKRSPLTRAHLTEVESRLERLEQLFLLIFPREDLDMILKMDSLQDIKALLTGLFVQDNVNKDAVTDRLASVETDMPLTLRQHRISATSSSEESSNKGQRQLTVSMNTFQDQSGSSSNREPLLRCSDARRDLELAIGGVLRAEQQIKDNLREVKAQIHSCISRHLECLRSREVWLYEQVDLIYQLKEETLQQQAQQLYSLLGQFNCLTHQLECTQNKDLANQVSVCLERLGSLTLKPEDSTVLLFEADTITLRQTITTFGSLKTIQIPEHLMAHASSANI
notes: Mammalian two-hybrid
B9: GAL4 DBD fused ARA70-C (aa 383-614) (other)
chain: MKLLSSIEQACDICRLKKLKCSKEKPKCAKCLKNNWECRYSPKTKRSPLTRAHLTEVESRLERLEQLFLLIFPREDLDMILKMDSLQDIKALLTGLFVQDNVNKDAVTDRLASVETDMPLTLRQHRISATSSSEESSNKGQRQLTVSSMVTEDWLVQNHQDPCKVEEVCRANEPCTSFAECVCDENCEKEALYKWLLKKEGKDKNGMPVEPKPEPEKHKDSLNMWLCPRKEVIEQTKAPKAMTPSRIADSFQVIKNSPLSEWLIRPPYKEGSPKEVPGTEDRAGKQKFKSPMNTSWCSFNTADWVLPGKKMGNLSQLSSGEDKWLLRKKAQEVLLNSPLQEEHNFPPDHYGLPAVCDLFACMQLKVDKEKWLYRTPLQM
notes: Mammalian two-hybrid
B10: VP16 fused AR-LBD (aa 590-918) (receptor)
chain: KQKYLCASRNDCTIDKFRRKNCPSCRLRKCYEAGMTLGARKLKKLGNLKLQEEGEASSTTSPTEETTQKLTVSHIEGYECQPIFLNVLEAIEPGVVCAGHDNNQPDSFAALLSSLNELGERQLVHVVKWAKALPGFRNLHVDDQMAVIQYSWMGLMVFAMGWRSFTNVNSRMLYFAPDLVFNEYRMHKSRMYSQCVRMRHLSQEFGWLQITPQEFLCMKALLLFSIIPVDGLKNQKFFDELRMNYIKELDRIIACKRKNPTSCSRRFYQLTKLLDSVQPIARELHQFTFDLLIKSHMVSVDFPEMMAEIISVQVPKILSGKVKPIYFHT
notes: also called pCMX-VP16-AR

Legend:
[1] = biological target: T1, VP16 fused near full-length AR (nAR, aa …); assay: cell-based or functional assay
[2] = biological target: pGAL0-AR: GAL4 DBD (a.a. 1-147) fused to hinge and LBD of wtAR (human, UniProt P04386 1-147 (Saccharomyces cerevisiae entry)); assay: cell-based or functional assay
[3] = biological target: B1; assay: mammalian two-hybrid, DU145, CAT
[4] = biological target: T3, GAL4 DBD fused with C-terminal fragment (aa 595-918) of wild-type AR (human, UniProt P04386 1-147 (Saccharomyces cerevisiae entry)); assay: yeast two-hybrid, plate nutritional selection
T3 construct: range 1-147; also called pAS2-AR; pAS2-wtAR
From the text: (§1) (B) The domains of ARA70 responsible for AR interaction by yeast two-hybrid assay. The interaction of different domains/motifs of ARA70 with wtAR assayed by plate nutritional selection in the yeast Y190 strain. […] Data were reproducible in two independent transformations.

[5] = biological target: T3, GAL4 DBD fused with C-terminal fragment …; assay: yeast two-hybrid, 10 nM DHT
From the text: as §1

[6] = biological target: T2, VP16 fused AR (Example 3); assay: mammalian two-hybrid, DU145, pG5-Luc

## B1
[1]
  CAT activity, mammalian two-hybrid system, DU145 cells: 3 fold

## B2
[2]
  CAT activity, mammalian two-hybrid assay: 12 fold
[3]
  binding result: no binding

## B3
[4]
  binding result: binds

## B4
[4]
  binding result: binds

## B5
[5]
  binding result: no binding

## B6
[5]
  binding result: no binding

## B7
[5]
  binding result: no binding

## B8
[6]
  binding result: no binding

## B9
[6]
  binding result: no binding

## B10
[3]
  binding result: no binding
